Patent US20080134370A1, “Novel Altered Gene from Rice Anthranilic Acid Synthase Gene Oasa2 and Use Thereof” (priority 2005, published 2008)

What was measured:
[1] = test system: rice anthranilate synthase (OASA2 protein); experiment: Enzyme Activity Measurement 2: anthranilate synthase activity in reaction system using the β subunit of rice anthranilate synthase (glutamine); assay type: biochemical
Procedure: (§1) The OASA2 protein synthesized by the wheat embryo acellular system was quantified using rabbit anti-OASA2 antibody that had been prepared based on the peptide fragment with the sequence at position 161 to 175 (MDHEKGKVTEQVVDD) of the amino acid sequence of OASA2 protein. A refined sample of OASA2 protein was also used for the quantification. Western blot analysis was performed according to the method of Towbin et al. (Towbin, H., Staehelin, T. and Gordon, J. 1979. Electrophoretic transfer of proteins from polyacrylamide gels to nitrocellulose sheets: procedure and some applications. Proc Natl Acad Sci USA 76: 4350-4354). The estimated quantity of OASA2 protein was used for the correction of enzyme activity, as will be described later.
(§2) As is known, activity of OASA2 protein is under the feedback inhibition by tryptophan. It is therefore necessary to eliminate tryptophan in the protein synthesis reaction mixture, and replace the environment of the expressed protein with a buffer component for AS activity measurement. To this end, the protein synthesis reaction mixture was replaced with buffer A (50 mM Tris-HCl, pH7.6; 0.05 mM EDTA; 2 mM MgCl2; 0.05 mM DTT; 5% glycerol), using Microspin G-25 columns (Amersham Biosciences)<
Ninety μl of reaction solution (20 mM Tris-HCl, pH 8.3; 5 mM glutamine; 0.2 to 0.8 mM chorismate; 10 mM MgCl2) was supplemented with 2.5 μl of crude extract exchanged with buffer, and the reaction mixture was allowed to react for 1 hour at 32° C. The preparation of rice anthranilate synthase β subunit and quantification of the product by the Western blot method were performed according to the method of Kanno et al. (Kanno et al. (2004) Plant Molecular Biology 54, 11-22) The reaction was stopped by adding 10 μl of 1N HCl, and synthesized anthranilate was extracted with 300 μl of ethyl acetate. The yield of anthranilate was measured with Wallac 1420 ARVOsx-FL (Perkin-Elmer Life Sciences Japan. Co., Ltd.) at the excitation wavelength of 355 nm/fluorescence (emission) 460 nm. […]

[2] = test system: Yeast TRP2 gene defective mutant strains; experiment: Free tryptophan content in yeast TRP2 gene defective mutant strains expressing OASA2 gene; assay type: cell-based
From the text: Yeasts with a defective TRP2 gene, analogous to OASA2 gene, require tryptophan for growth. It can therefore be said that TRP2 activity is complemented by OASA2 gene if OASA2 gene introduced into the yeast allows for growth without tryptophan. Further, the activity of mutant OASA2 gene can be assayed by causing the yeast to express the mutant OASA2 gene having resistance to tryptophan feedback inhibition and by measuring accumulation of free tryptophan in the organism.
Expression vectors were constructed by performing PCR with the primers below. […] As described above, the N terminus region of the OASA2 protein includes a chloroplast transit signal, and as such the primers were designed to exclude the signal sequence in the product of expression, as in the Split-PCR primers described in Section (2) above. […]
The yeast transformant was separated into single colonies on synthetic complete agar medium (0.67% amino acid-less bactoyeast nitrogen base, uracil-free 0.2% dropout mixture, 2% bactoagar) supplemented with 2% glucose. […] The preparation was then applied to a high-performance liquid chromatography (HPLC) device (the product of Waters, Waters Alliance HPLC FLD System 2695) and free tryptophan content was measured. For HPLC, a Xterra RP18 column (4.6×150 mm) (Waters) was used, and detection of tryptophan was made at the excitation wavelength 278 nm/fluorescence wavelength 348 nm.

[3] = test system: rice anthranilate synthase (OASA2 protein); experiment: Enzyme Activity Measurement 1: anthranilate synthase activity with 100 mM NH4Cl as amide group donating substrate; assay type: biochemical; conditions: without tryptophan, FIG. 1 and FIG. 2
Procedure: as §1
The OASA2 protein, which is the α subunit of rice anthranilate synthase catalyzes the reaction producing anthranilate from chorismate, using ammonia that originates in the amide group of glutamine supplied by the β subunit.
as §2
Ninety μl of reaction solution (20 mM Tris-HCl, pH 8.3; 100 mM NH4Cl; 0.5 mM chorismate; 10 mM MgCl2) was supplemented with 2.5 μl of crude extract exchanged with buffer, and the reaction mixture was allowed to react for 1 hour at 32° C. The reaction was stopped by adding 10 μl of 1N HCl, and synthesized anthranilate was extracted with 300 μl of ethyl acetate. The yield of anthranilate was measured with Wallac 1420 ARVOsx-FL (Perkin-Elmer Life Sciences Japan. Co., Ltd.) at the excitation wavelength of 355 nm/fluorescence (emission) 460 nm. […]

B1: Wt: wild type rice anthranilate synthase encoded by rice anthranilate synthase gene OASA2 (SEQ ID NO: 1) (protein, listed as Oryza sativa)
chain: MESIAAATFTPSRLAARPATPAAAAAPVRARAAVAAGGRRRTSRRGGVRCSAGKPEASAVINGSAAARAAEEDRRRFFEAAERGSGKGNLVPMWECIVSDHLTPVLAYRCLVPEDNMETPSFLFESVEQGPEGTTNVGRYSMVGAHPVMEVVAKEHKVTIMDHEKGKVTEQVVDDPMQIPRSMMEGWHPQQIDQLPDSFTGGWVGFFSYDTVRYVEKKKLPFSGAPQDDRNLPDVHLGLYDDVLVFDNVEKKVYVIHWVNLDRHATTEDAFQDGKSRLNLLLSKVHNSNVPKLSPGFVKLHTRQFGTPLNKSTMTSDEYKNAVMQAKEHIMAGDIFQIVLSQRFERRTYANPFEVYRALRIVNPSPYMAYVQARGCVLVASSPEILTRVRKGKIINRPLAGTVRRGKTEKEDEMQEQQLLSDEKQCAEHIMLVDLGRNDVGKVSKPGSVKVEKLMNIERYSHVMHISSTVSGELDDHLQSWDALRAALPVGTVSGAPKVKAMELIDELEVTRRGPYSGGLGGISFDGDMLIALALRTIVFSTAPSHNTMYSYKDTERRREWVAHLQAGAGIVADSSPDDEQRECENKAAALARAIDLAESAFVDKE
- Relative Ratio (enzyme activity compared with the wild type) ([1]; Vmax relative to Wt): 1.00 fold
- enzyme activity with tryptophan relative to 100% enzyme activity without tryptophan ([1]; tryptophan 50 μM, FIG. 3): below 10%
- Vmax ([1]; with β subunit, 5 mM glutamine, 0.2 to 0.8 mM chorismate): 215 nmol/min/mg OASA2 Protein
- Relative Amount ([2]; free tryptophan relative to yeast expressing Wt OASA2 gene): 1.0 fold
- Free Tryptophan Content ([2]; yeast transformant, galactose medium without tryptophan, 30° C., 2 days): 126 ± 7 pmol/mg wet weight

B2: N351D: mutant OASA2 protein, substitution of asparatate residue for asparagine residue at position 351 (protein, UniProt Q9XJ29 50-606, looked up, variant N351D)
Anthranilate synthase alpha …: CSAGKPEASAVINGSAAARAAEEDRRRFFEAAERGSGKGNLVPMWECIVSDHLTPVLAYRCLVPEDNMETPSFLFESVEQGPEGTTNVGRYSMVGAHPVMEVVAKEHKVTIMDHEKGKVTEQVVDDPMQIPRSMMEGWHPQQIDQLPDSFTGGWVGFFSYDTVRYVEKKKLPFSGAPQDDRNLPDVHLGLYDDVLVFDNVEKKVYVIHWVNLDRHATTEDAFQDGKSRLNLLLSKVHNSNVPKLSPGFVKLHTRQFGTPLNKSTMTSDEYKNAVMQAKEHIMAGDIFQIVLSQRFERRTYADPFEVYRALRIVNPSPYMAYVQARGCVLVASSPEILTRVRKGKIINRPLAGTVRRGKTEKEDEMQEQQLLSDEKQCAEHIMLVDLGRNDVGKVSKPGSVKVEKLMNIERYSHVMHISSTVSGELDDHLQSWDALRAALPVGTVSGAPKVKAMELIDELEVTRRGPYSGGLGGISFDGDMLIALALRTIVFSTAPSHNTMYSYKDTERRREWVAHLQAGAGIVADSSPDDEQRECENKAAALARAIDLAESAFVDKE
- enzyme activity (anthranilate yield) compared with wild type [3]: improved enzyme activity over the wild type

B3: L530A: mutant OASA2 protein, substitution of alanine residue for leucine residue at position 530 (protein, UniProt Q9XJ29 50-606, looked up, variant L530A)
Anthranilate synthase alpha …: CSAGKPEASAVINGSAAARAAEEDRRRFFEAAERGSGKGNLVPMWECIVSDHLTPVLAYRCLVPEDNMETPSFLFESVEQGPEGTTNVGRYSMVGAHPVMEVVAKEHKVTIMDHEKGKVTEQVVDDPMQIPRSMMEGWHPQQIDQLPDSFTGGWVGFFSYDTVRYVEKKKLPFSGAPQDDRNLPDVHLGLYDDVLVFDNVEKKVYVIHWVNLDRHATTEDAFQDGKSRLNLLLSKVHNSNVPKLSPGFVKLHTRQFGTPLNKSTMTSDEYKNAVMQAKEHIMAGDIFQIVLSQRFERRTYANPFEVYRALRIVNPSPYMAYVQARGCVLVASSPEILTRVRKGKIINRPLAGTVRRGKTEKEDEMQEQQLLSDEKQCAEHIMLVDLGRNDVGKVSKPGSVKVEKLMNIERYSHVMHISSTVSGELDDHLQSWDALRAALPVGTVSGAPKVKAMELIDELEVTRRGPYSGGLGGISFDGDMAIALALRTIVFSTAPSHNTMYSYKDTERRREWVAHLQAGAGIVADSSPDDEQRECENKAAALARAIDLAESAFVDKE
- enzyme activity (anthranilate yield) compared with wild type [3]: improved enzyme activity over the wild type

B4: L530D: mutant OASA2 protein, substitution of asparatate residue for leucine residue at position 530 (protein, UniProt Q9XJ29 50-606, looked up, variant L530D)
Anthranilate synthase alpha …: CSAGKPEASAVINGSAAARAAEEDRRRFFEAAERGSGKGNLVPMWECIVSDHLTPVLAYRCLVPEDNMETPSFLFESVEQGPEGTTNVGRYSMVGAHPVMEVVAKEHKVTIMDHEKGKVTEQVVDDPMQIPRSMMEGWHPQQIDQLPDSFTGGWVGFFSYDTVRYVEKKKLPFSGAPQDDRNLPDVHLGLYDDVLVFDNVEKKVYVIHWVNLDRHATTEDAFQDGKSRLNLLLSKVHNSNVPKLSPGFVKLHTRQFGTPLNKSTMTSDEYKNAVMQAKEHIMAGDIFQIVLSQRFERRTYANPFEVYRALRIVNPSPYMAYVQARGCVLVASSPEILTRVRKGKIINRPLAGTVRRGKTEKEDEMQEQQLLSDEKQCAEHIMLVDLGRNDVGKVSKPGSVKVEKLMNIERYSHVMHISSTVSGELDDHLQSWDALRAALPVGTVSGAPKVKAMELIDELEVTRRGPYSGGLGGISFDGDMDIALALRTIVFSTAPSHNTMYSYKDTERRREWVAHLQAGAGIVADSSPDDEQRECENKAAALARAIDLAESAFVDKE
- enzyme activity (anthranilate yield) compared with wild type [3]: improved enzyme activity over the wild type
